According to the RNAGym collection of RNA variant scans (doi:10.1073/pnas.2313332121):

B1: TPR t1 (parent)
chain: GACCAAUCUGCCCUCAGAGCUCGAGAACAUCUUCGGAUGCAGAGGAGGCAGGCUUCGGUGGCGCGAUAGCGCCAACGUCCUCAACCUCCAAUGCAUCCCACCACAUGAUGAUGCCUGAAGAGCCUUGGUUUUUUG

Variants of: B1
Assay: polymerase ribozyme fitness, log enrichment relative to wild type (log ratio); higher = more active; in vitro selection for triplet polymerase activity
How it was run: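 Fitness measures genotype enrichment against wild-type enrichment on a logarithmic scale, with inverse-variance-weighted averaging of replicates. The logarithm is base 2, and genotypes were kept only with ≥10 input reads and ≥1 read per output in Illumina sequencing. The sequenced libraries came from one triplicate in vitro selection round, including frozen incubation at −7 °C, of PCR-built, transcribed mutant libraries of each subunit of a heterodimeric triplet polymerase ribozyme.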

Going from G47U C72A C76A to G47C C114U, the “polymerase ribozyme fitness (log ratio)” value falls from -1.85 to -3.1.

Going from G47U G135U to G47U U130G, the “polymerase ribozyme fitness (log ratio)” value falls from -2.02 to -2.4.

Compared with G48A C49U C53A A111U, G47U U54G C104U is higher in “polymerase ribozyme fitness (log ratio)” value: -3.28 for the first, -1.47 for the second.

Compared with G48A A68G, G47U A111G G120A is higher in “polymerase ribozyme fitness (log ratio)” value: -2.51 for the first, -2.18 for the second.

Going from G47U C53U C104U to G47C G60C U109A U112G, the “polymerase ribozyme fitness (log ratio)” value falls from -1.72 to -7.01.

First: G47U C73A C85U
Second: G47U C101A
The “polymerase ribozyme fitness (log ratio)” value of the first is higher: -1.61 for the first, -2.91 for the second.

First: G47U U59C C101U U125G U126C
Second: G47U U78C A111U
The “polymerase ribozyme fitness (log ratio)” value of the first is higher: -3.12 for the first, -4.07 for the second.

Compared with G47U A95U A108G C123A, G47C U55G C88U is higher in “polymerase ribozyme fitness (log ratio)” value: -3.06 for the first, -1.25 for the second.

Going from G47U C53U to G47U C53A, the “polymerase ribozyme fitness (log ratio)” value falls from -1.6 to -1.95.

G47U C49G C88A A95C C123A and G47C G63U are within 0.2 log units of each other in “polymerase ribozyme fitness (log ratio)” value: -3.47 for the first, -3.66 for the second.

G47C G61U U130A and G47U A100U are within 0.2 log units of each other in “polymerase ribozyme fitness (log ratio)” value: -2.36 for the first, -2.31 for the second.

Compared with G47U A100C, G47U U55A C70A C94G is lower in “polymerase ribozyme fitness (log ratio)” value: -2.83 for the first, -4.15 for the second.

First: G47U C79U
Second: G47U C76U
The “polymerase ribozyme fitness (log ratio)” value of the first is lower: -1.85 for the first, -1.17 for the second.

Going from G47C G61C to G47C G93U, the “polymerase ribozyme fitness (log ratio)” value falls from -3.43 to -3.69.

Going from G47U G48U to G47U G48C, the “polymerase ribozyme fitness (log ratio)” value rises from -2.67 to -1.51.

Going from G47U G57A G69U to G47C U78A A105C G120C U130C, the “polymerase ribozyme fitness (log ratio)” value falls from -1.68 to -3.11.

Compared with G47C G93A C124A G127U G135U, G47U G60A is higher in “polymerase ribozyme fitness (log ratio)” value: -2.23 for the first, -1.93 for the second.

First: G47U G51U
Second: G47C U116C
The “polymerase ribozyme fitness (log ratio)” value of the first is lower: -4.87 for the first, -2.31 for the second.

Compared with G47C C123G U133A, G47U G120C G127C is lower in “polymerase ribozyme fitness (log ratio)” value: -0.852 for the first, -1.64 for the second.

Going from G47C G69A to G47U U54C C56A C80U C124G, the “polymerase ribozyme fitness (log ratio)” value rises from -4.38 to -1.14.

First: G47U C49G A50C G57U
Second: G47U G110C
The “polymerase ribozyme fitness (log ratio)” value of the first is higher: -1.42 for the first, -5.49 for the second.

Compared with G47U C64A C80G U87G C88A U112A, G47C G77U C88A C97U G113C G117C is lower in “polymerase ribozyme fitness (log ratio)” value: -6.27 for the first, -6.98 for the second.

Going from G48A A95G U132A to G47U G71C U125G, the “polymerase ribozyme fitness (log ratio)” value falls from -1.21 to -2.97.

Going from G48A A84C C86U U87G G117A G128U to G47U U55C C101G, the “polymerase ribozyme fitness (log ratio)” value rises from -6.08 to -2.84.

Compared with G48A C49U C56A A100U, G47U G77U C94A U116C A121C is lower in “polymerase ribozyme fitness (log ratio)” value: -2.11 for the first, -4.66 for the second.

Compared with G47U U54C C76A U92C, G47U G117A is higher in “polymerase ribozyme fitness (log ratio)” value: -5.69 for the first, -3.33 for the second.

First: G47U G63C
Second: G47U G63A
The “polymerase ribozyme fitness (log ratio)” value of the first is lower: -2.32 for the first, -2.11 for the second.

G47U G63U and G47U G110U U134A are the same in “polymerase ribozyme fitness (log ratio)” value: -2.33 for the first, -2.33 for the second.

Compared with G48A A84C, G48A A84G is higher in “polymerase ribozyme fitness (log ratio)” value: -0.643 for the first, -0.314 for the second.

Going from G48A A95U to G48A C49G G51U C94A A111U, the “polymerase ribozyme fitness (log ratio)” value falls from -1.28 to -6.59.

First: G47U U87G G120A
Second: G47U G58C G63U
The “polymerase ribozyme fitness (log ratio)” value of the first is lower: -1.99 for the first, -1.75 for the second.

Compared with G47U C72G G117U, G47U C124G is higher in “polymerase ribozyme fitness (log ratio)” value: -5.24 for the first, 0.196 for the second.

Going from G47U C124A to G47U C64A A121U, the “polymerase ribozyme fitness (log ratio)” value falls from -0.524 to -4.82.

Going from G47U G61A U131A to G47C C104U, the “polymerase ribozyme fitness (log ratio)” value falls from -0.875 to -1.08.

Going from G48A C53G U55C G69A to G47U U106C, the “polymerase ribozyme fitness (log ratio)” value rises from -2.78 to -1.89.

Compared with G47C U112A, G47U G48A A121U is higher in “polymerase ribozyme fitness (log ratio)” value: -0.857 for the first, 1.01 for the second.

Going from G47C U126A to G47U G69C A105U, the “polymerase ribozyme fitness (log ratio)” value falls from -4.53 to -5.38.

Compared with G47U G58A G63U A90G G117C, G47U C80A is higher in “polymerase ribozyme fitness (log ratio)” value: -6.13 for the first, -5.8 for the second.

First: G47C U78A
Second: G47U C53A A103C U112A G122A
The “polymerase ribozyme fitness (log ratio)” value of the first is higher: -1.42 for the first, -6.51 for the second.

Going from G47U A66G A118G U130G to G47U C70G, the “polymerase ribozyme fitness (log ratio)” value falls from -4.13 to -6.87.

Compared with G47U C70A, G48A A50C U78A A119G G120C is higher in “polymerase ribozyme fitness (log ratio)” value: -4.28 for the first, 0.118 for the second.

First: G47U U112C
Second: G47U U112A
The “polymerase ribozyme fitness (log ratio)” value of the first is lower: -0.538 for the first, 0.352 for the second.
